Experimental data reported in article PMC3115872, “Characterization of the expression, promoter activity and molecular architecture of fibin” (BMC Biochemistry, 2011).

Target: the molecule itself
Experiment: non-reducing SDS-PAGE with Western blot; lysates of transfected COS-7 cells harvested after 72 h; equal amounts of protein separated by SDS-PAGE under non-reducing conditions; immunoblot with anti-fibin-2 antibody

B1: fibin (mouse), wild type (natural protein, UniProt Q9CQS3 19-217, looked up)
chain: YFDGPLYPEMSNGTLHHYFVPDGDYEENDDPEKCQLLFRVSDRRRCSQGEGGQASSLLSLTLREEFTVLGRQVEDAGRVLEGISKSISYDLDGEESYGKYLRRESHQIGDAYSNSDKSLTELESKFKQGQEQDSRQESRLNEDFLGMLVHTRSLLKETLDISVGLRDKYELLAHTIRSHGTRLGRLKSDYLEGGAQKTG
modifications: N-glycosylated at Asn30
notes: mouse fibin; also called WT fibin; wild-type fibin; source: COS-7, transfected (pcDps vector), in lysate
B1 was tested, and the “stoichiometry N” value was 2.
